# Source: patent publication US20240270846A1 (published 2024)
# Biological target: T1, CD3 epsilon homodimer protein (UniProt P07766 23-126)
# T1 construct: Construct of the homodimer is not described; also called CD3 (CD3 epsilon)
# Test: SPR Biacore T200, CD3e homodimer on chip, antibody analyte;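 also: CD3 epsilon homodimer amine-coupled on CM4 sensor chip, antibodies injected as analyte at 25 °C in HBS-EP+, ratio ≥0.8 taken as binding retained versus unaltered parent antibody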
# T1 sequence (P07766 23-126): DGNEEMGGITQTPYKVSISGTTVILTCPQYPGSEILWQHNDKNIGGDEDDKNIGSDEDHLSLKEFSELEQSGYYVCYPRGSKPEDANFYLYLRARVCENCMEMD
row,ratio of amounts bound (altered form/GLS3000),Binder
1,1.18,"GLS3000 N53H one-arm antibody (antibody, human IgG1, kappa, L234A L235A, N297A, name in Kabat numbering) light: DIVMTQSPLSLPVTPGEPASISCRSSQSLVHSNRNTYLHWYQQKPGQAPRLLIYKVSHRFSGVPDRFSGSGSGTDFTLKISRVEAEDVGVYYCGQGTQVPYTFGQGTKLEIKRTVAAPSVFIFPPSDEQLKSGTASVVCLLNNFYPREAKVQWKVDNALQSGNSQESVTEQDSKDSTYSLSSTLTLSKADYEKHKVYACEVTHQGLSSPVTKSFNRGEC heavy: QVQLVESGGGVVQPGRSLRLSCAASGFTFSNAWMHWVRQAPGKGLEWVAQIKAKSNNYATYYAESVKGRFTISRDDSKNSLYLQMNSLKTEDTAVYYCRYVHYGAYYGVDAWGQGTTVTVSSASTKGPSVFPLAPSSKSTSGGTAALGCLVKDYFPEPVTVSWNSGALTSGVHTFPAVLQSSGLYSLSSVVTVPSSSLGTQTYICNVNHKPSNTKVDKKVEPKSCDKTHTCPPCPAPEAAGGPSVFLFPPKPKDTLMISRTPEVTCVVVDVSHEDPEVKFNWYVDGVEVHNAKTKPREEQYASTYRVVSVLTVLHQDWLNGKEYKCKVSNKALPAPIEKTISKAKGQPREPQVYTLPPSRCELTKNQVSLSCAVKGFYPSDIAVEWESNGQPENNYKTTPPVLDSDGSFFLVSKLTVDKSRWQQGNVFSCSVMHEALHNHYTQKSLSLSPDYKDDDDK EPKSSDKTHTCPPCPAPELLGGPSVFLFPPKPKDTLMISRTPEVTCVVVDVSHEDPEVKFNWYVDGVEVHNAKTKPREEQYNSTYRVVSVLTVLHQDWLNGKEYKCKVSNKALPAPIEKTISKAKGQPREPQVCTLPPSRDELTKNQVSLWCLVKGFYPSDIAVEWESNGQPENNYKTTPPVLDSDGSFFLYSKLTVDKSRWQQGNVFSCSVMHEALHNRYTQKSLSLSP"
2,0.69,"GLS3000 N53F one-arm antibody (antibody, human IgG1, kappa, L234A L235A, N297A, name in Kabat numbering) light: DIVMTQSPLSLPVTPGEPASISCRSSQSLVHSNRNTYLHWYQQKPGQAPRLLIYKVSFRFSGVPDRFSGSGSGTDFTLKISRVEAEDVGVYYCGQGTQVPYTFGQGTKLEIKRTVAAPSVFIFPPSDEQLKSGTASVVCLLNNFYPREAKVQWKVDNALQSGNSQESVTEQDSKDSTYSLSSTLTLSKADYEKHKVYACEVTHQGLSSPVTKSFNRGEC heavy: QVQLVESGGGVVQPGRSLRLSCAASGFTFSNAWMHWVRQAPGKGLEWVAQIKAKSNNYATYYAESVKGRFTISRDDSKNSLYLQMNSLKTEDTAVYYCRYVHYGAYYGVDAWGQGTTVTVSSASTKGPSVFPLAPSSKSTSGGTAALGCLVKDYFPEPVTVSWNSGALTSGVHTFPAVLQSSGLYSLSSVVTVPSSSLGTQTYICNVNHKPSNTKVDKKVEPKSCDKTHTCPPCPAPEAAGGPSVFLFPPKPKDTLMISRTPEVTCVVVDVSHEDPEVKFNWYVDGVEVHNAKTKPREEQYASTYRVVSVLTVLHQDWLNGKEYKCKVSNKALPAPIEKTISKAKGQPREPQVYTLPPSRCELTKNQVSLSCAVKGFYPSDIAVEWESNGQPENNYKTTPPVLDSDGSFFLVSKLTVDKSRWQQGNVFSCSVMHEALHNHYTQKSLSLSPDYKDDDDK EPKSSDKTHTCPPCPAPELLGGPSVFLFPPKPKDTLMISRTPEVTCVVVDVSHEDPEVKFNWYVDGVEVHNAKTKPREEQYNSTYRVVSVLTVLHQDWLNGKEYKCKVSNKALPAPIEKTISKAKGQPREPQVCTLPPSRDELTKNQVSLWCLVKGFYPSDIAVEWESNGQPENNYKTTPPVLDSDGSFFLYSKLTVDKSRWQQGNVFSCSVMHEALHNRYTQKSLSLSP"
3,0.76,"GLS3000 N53G one-arm antibody (antibody, human IgG1, kappa, L234A L235A, N297A, name in Kabat numbering) light: DIVMTQSPLSLPVTPGEPASISCRSSQSLVHSNRNTYLHWYQQKPGQAPRLLIYKVSGRFSGVPDRFSGSGSGTDFTLKISRVEAEDVGVYYCGQGTQVPYTFGQGTKLEIKRTVAAPSVFIFPPSDEQLKSGTASVVCLLNNFYPREAKVQWKVDNALQSGNSQESVTEQDSKDSTYSLSSTLTLSKADYEKHKVYACEVTHQGLSSPVTKSFNRGEC heavy: QVQLVESGGGVVQPGRSLRLSCAASGFTFSNAWMHWVRQAPGKGLEWVAQIKAKSNNYATYYAESVKGRFTISRDDSKNSLYLQMNSLKTEDTAVYYCRYVHYGAYYGVDAWGQGTTVTVSSASTKGPSVFPLAPSSKSTSGGTAALGCLVKDYFPEPVTVSWNSGALTSGVHTFPAVLQSSGLYSLSSVVTVPSSSLGTQTYICNVNHKPSNTKVDKKVEPKSCDKTHTCPPCPAPEAAGGPSVFLFPPKPKDTLMISRTPEVTCVVVDVSHEDPEVKFNWYVDGVEVHNAKTKPREEQYASTYRVVSVLTVLHQDWLNGKEYKCKVSNKALPAPIEKTISKAKGQPREPQVYTLPPSRCELTKNQVSLSCAVKGFYPSDIAVEWESNGQPENNYKTTPPVLDSDGSFFLVSKLTVDKSRWQQGNVFSCSVMHEALHNHYTQKSLSLSPDYKDDDDK EPKSSDKTHTCPPCPAPELLGGPSVFLFPPKPKDTLMISRTPEVTCVVVDVSHEDPEVKFNWYVDGVEVHNAKTKPREEQYNSTYRVVSVLTVLHQDWLNGKEYKCKVSNKALPAPIEKTISKAKGQPREPQVCTLPPSRDELTKNQVSLWCLVKGFYPSDIAVEWESNGQPENNYKTTPPVLDSDGSFFLYSKLTVDKSRWQQGNVFSCSVMHEALHNRYTQKSLSLSP"

# Continued, binder first:
row,Binder,ratio of amounts bound (altered form/GLS3000)
1,"GLS3000 L33P one-arm antibody (antibody, human IgG1, kappa, L234A L235A, N297A, name in Kabat numbering) light: DIVMTQSPLSLPVTPGEPASISCRSSQSLVHSNRNTYPHWYQQKPGQAPRLLIYKVSNRFSGVPDRFSGSGSGTDFTLKISRVEAEDVGVYYCGQGTQVPYTFGQGTKLEIKRTVAAPSVFIFPPSDEQLKSGTASVVCLLNNFYPREAKVQWKVDNALQSGNSQESVTEQDSKDSTYSLSSTLTLSKADYEKHKVYACEVTHQGLSSPVTKSFNRGEC heavy: QVQLVESGGGVVQPGRSLRLSCAASGFTFSNAWMHWVRQAPGKGLEWVAQIKAKSNNYATYYAESVKGRFTISRDDSKNSLYLQMNSLKTEDTAVYYCRYVHYGAYYGVDAWGQGTTVTVSSASTKGPSVFPLAPSSKSTSGGTAALGCLVKDYFPEPVTVSWNSGALTSGVHTFPAVLQSSGLYSLSSVVTVPSSSLGTQTYICNVNHKPSNTKVDKKVEPKSCDKTHTCPPCPAPEAAGGPSVFLFPPKPKDTLMISRTPEVTCVVVDVSHEDPEVKFNWYVDGVEVHNAKTKPREEQYASTYRVVSVLTVLHQDWLNGKEYKCKVSNKALPAPIEKTISKAKGQPREPQVYTLPPSRCELTKNQVSLSCAVKGFYPSDIAVEWESNGQPENNYKTTPPVLDSDGSFFLVSKLTVDKSRWQQGNVFSCSVMHEALHNHYTQKSLSLSPDYKDDDDK EPKSSDKTHTCPPCPAPELLGGPSVFLFPPKPKDTLMISRTPEVTCVVVDVSHEDPEVKFNWYVDGVEVHNAKTKPREEQYNSTYRVVSVLTVLHQDWLNGKEYKCKVSNKALPAPIEKTISKAKGQPREPQVCTLPPSRDELTKNQVSLWCLVKGFYPSDIAVEWESNGQPENNYKTTPPVLDSDGSFFLYSKLTVDKSRWQQGNVFSCSVMHEALHNRYTQKSLSLSP",0.3
2,"GLS3000 N53E one-arm antibody (antibody, human IgG1, kappa, L234A L235A, N297A, name in Kabat numbering) light: DIVMTQSPLSLPVTPGEPASISCRSSQSLVHSNRNTYLHWYQQKPGQAPRLLIYKVSERFSGVPDRFSGSGSGTDFTLKISRVEAEDVGVYYCGQGTQVPYTFGQGTKLEIKRTVAAPSVFIFPPSDEQLKSGTASVVCLLNNFYPREAKVQWKVDNALQSGNSQESVTEQDSKDSTYSLSSTLTLSKADYEKHKVYACEVTHQGLSSPVTKSFNRGEC heavy: QVQLVESGGGVVQPGRSLRLSCAASGFTFSNAWMHWVRQAPGKGLEWVAQIKAKSNNYATYYAESVKGRFTISRDDSKNSLYLQMNSLKTEDTAVYYCRYVHYGAYYGVDAWGQGTTVTVSSASTKGPSVFPLAPSSKSTSGGTAALGCLVKDYFPEPVTVSWNSGALTSGVHTFPAVLQSSGLYSLSSVVTVPSSSLGTQTYICNVNHKPSNTKVDKKVEPKSCDKTHTCPPCPAPEAAGGPSVFLFPPKPKDTLMISRTPEVTCVVVDVSHEDPEVKFNWYVDGVEVHNAKTKPREEQYASTYRVVSVLTVLHQDWLNGKEYKCKVSNKALPAPIEKTISKAKGQPREPQVYTLPPSRCELTKNQVSLSCAVKGFYPSDIAVEWESNGQPENNYKTTPPVLDSDGSFFLVSKLTVDKSRWQQGNVFSCSVMHEALHNHYTQKSLSLSPDYKDDDDK EPKSSDKTHTCPPCPAPELLGGPSVFLFPPKPKDTLMISRTPEVTCVVVDVSHEDPEVKFNWYVDGVEVHNAKTKPREEQYNSTYRVVSVLTVLHQDWLNGKEYKCKVSNKALPAPIEKTISKAKGQPREPQVCTLPPSRDELTKNQVSLWCLVKGFYPSDIAVEWESNGQPENNYKTTPPVLDSDGSFFLYSKLTVDKSRWQQGNVFSCSVMHEALHNRYTQKSLSLSP",0.54
3,"GLS3000 L33V one-arm antibody (antibody, human IgG1, kappa, L234A L235A, N297A, name in Kabat numbering) light: DIVMTQSPLSLPVTPGEPASISCRSSQSLVHSNRNTYVHWYQQKPGQAPRLLIYKVSNRFSGVPDRFSGSGSGTDFTLKISRVEAEDVGVYYCGQGTQVPYTFGQGTKLEIKRTVAAPSVFIFPPSDEQLKSGTASVVCLLNNFYPREAKVQWKVDNALQSGNSQESVTEQDSKDSTYSLSSTLTLSKADYEKHKVYACEVTHQGLSSPVTKSFNRGEC heavy: QVQLVESGGGVVQPGRSLRLSCAASGFTFSNAWMHWVRQAPGKGLEWVAQIKAKSNNYATYYAESVKGRFTISRDDSKNSLYLQMNSLKTEDTAVYYCRYVHYGAYYGVDAWGQGTTVTVSSASTKGPSVFPLAPSSKSTSGGTAALGCLVKDYFPEPVTVSWNSGALTSGVHTFPAVLQSSGLYSLSSVVTVPSSSLGTQTYICNVNHKPSNTKVDKKVEPKSCDKTHTCPPCPAPEAAGGPSVFLFPPKPKDTLMISRTPEVTCVVVDVSHEDPEVKFNWYVDGVEVHNAKTKPREEQYASTYRVVSVLTVLHQDWLNGKEYKCKVSNKALPAPIEKTISKAKGQPREPQVYTLPPSRCELTKNQVSLSCAVKGFYPSDIAVEWESNGQPENNYKTTPPVLDSDGSFFLVSKLTVDKSRWQQGNVFSCSVMHEALHNHYTQKSLSLSPDYKDDDDK EPKSSDKTHTCPPCPAPELLGGPSVFLFPPKPKDTLMISRTPEVTCVVVDVSHEDPEVKFNWYVDGVEVHNAKTKPREEQYNSTYRVVSVLTVLHQDWLNGKEYKCKVSNKALPAPIEKTISKAKGQPREPQVCTLPPSRDELTKNQVSLWCLVKGFYPSDIAVEWESNGQPENNYKTTPPVLDSDGSFFLYSKLTVDKSRWQQGNVFSCSVMHEALHNRYTQKSLSLSP",1.05
